Results taken from the supplement of paper PMC7125110.
± gives the standard error. Variants at the floor of the assay were thinned out.

B1: glmS ribozyme (parent)
chain: AUAAAAGCGCCAGAACUACAGAAAUGUAGUUGACGAGGAGGAGGUUUAUCGAAUUUUCGGCGGAUGCCUCCAAA

Variants of: B1
Assay: self-cleavage kobs at 2500 uM GlcN6P; higher = faster cleavage; RNA array
Settings: with glucosamine-6-phosphate
Outline: (§1)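 Barcoded ribozyme variants, transcribed in situ by E. coli RNA polymerase on sequenced MiSeq chips, were followed via a hybridised Cy3 probe at 37 °C. Glucosamine-6-phosphate ranged from 40 μM to 10 mM in HEPES/KCl/Mg(OAc)2 buffer. kobs came from decay fits to per-tile medians, and kcat and KM from weighted Michaelis–Menten fits.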

Going from C34A A36C G37U G51U to A15U A64G C71G, the “self-cleavage kobs at 2500 uM GlcN6P” value rises from < 1e-05 s⁻¹ to 5.53e-05 ± 1.5e-05 s⁻¹.

G7U C16U U46A and C8G G40U G41C cannot be ordered by “self-cleavage kobs at 2500 uM GlcN6P” value: < 1e-05 s⁻¹ for the first, < 1e-05 s⁻¹ for the second.

First: A12C A14U A53C
Second: C8A A15C G32A
The “self-cleavage kobs at 2500 uM GlcN6P” value of the first is higher: 8.51e-05 ± 4e-05 s⁻¹ for the first, < 1e-05 s⁻¹ for the second.

Compared with A42C U65C C71G, A15G G38U U57A G62U U69A is higher in “self-cleavage kobs at 2500 uM GlcN6P” value: < 1e-05 s⁻¹ for the first, 0.000891 ± 0.00032 s⁻¹ for the second.

Compared with C67A C68U C70U, C10G C34U U46C C70U is lower in “self-cleavage kobs at 2500 uM GlcN6P” value: 2.78e-05 ± 1.3e-05 s⁻¹ for the first, < 1e-05 s⁻¹ for the second.

C11A C16A A42C and G9A G37C G38C cannot be ordered by “self-cleavage kobs at 2500 uM GlcN6P” value: < 1e-05 s⁻¹ for the first, < 1e-05 s⁻¹ for the second.

C11A A14C C70U and A12G U30A U69C are within error of each other in “self-cleavage kobs at 2500 uM GlcN6P” value: 7.46e-05 ± 2.7e-05 s⁻¹ for the first, 5.49e-05 ± 1.7e-05 s⁻¹ for the second.

Going from A39U U65C C70G to U57A G59U G66U, the “self-cleavage kobs at 2500 uM GlcN6P” value falls from 0.000144 ± 3.7e-05 s⁻¹ to < 1e-05 s⁻¹.

Compared with C11U A14G C70G, A15U A39G G51A is lower in “self-cleavage kobs at 2500 uM GlcN6P” value: 0.000303 ± 5e-05 s⁻¹ for the first, < 1e-05 s⁻¹ for the second.

First: C34A A36U A52G
Second: U57A C58A C70G
The “self-cleavage kobs at 2500 uM GlcN6P” value of the first is lower: < 1e-05 s⁻¹ for the first, 0.000143 ± 3.9e-05 s⁻¹ for the second.

G7U C10G G43U and C11A A12G G44U C71A cannot be ordered by “self-cleavage kobs at 2500 uM GlcN6P” value: < 1e-05 s⁻¹ for the first, < 1e-05 s⁻¹ for the second.

U45G G60A C67G C68U and U30C A42C U46A cannot be ordered by “self-cleavage kobs at 2500 uM GlcN6P” value: < 1e-05 s⁻¹ for the first, < 1e-05 s⁻¹ for the second.

Going from G38A C50G A52G to C16U C34G A53C, the “self-cleavage kobs at 2500 uM GlcN6P” value falls from 4.75e-05 ± 1.6e-05 s⁻¹ to < 1e-05 s⁻¹.

G13A A36U G40A and G44U U46G C70U C71G cannot be ordered by “self-cleavage kobs at 2500 uM GlcN6P” value: < 1e-05 s⁻¹ for the first, < 1e-05 s⁻¹ for the second.

First: A53G A64G C67G
Second: C8G G35A U65C
The “self-cleavage kobs at 2500 uM GlcN6P” value of the first is higher: 0.000335 ± 9.1e-05 s⁻¹ for the first, < 1e-05 s⁻¹ for the second.

First: G37U G38C U55C
Second: G40C U56C C71A
The “self-cleavage kobs at 2500 uM GlcN6P” value of the first is lower: < 1e-05 s⁻¹ for the first, 9.43e-05 ± 2.2e-05 s⁻¹ for the second.

Compared with A39G G66A U69G, A12C A14G G40C U56G C68U is lower in “self-cleavage kobs at 2500 uM GlcN6P” value: 3.43e-05 ± 1.3e-05 s⁻¹ for the first, < 1e-05 s⁻¹ for the second.

First: C16U G37C G51C G59C G60C
Second: A15G U31G U47G
The “self-cleavage kobs at 2500 uM GlcN6P” value of the first is lower: < 1e-05 s⁻¹ for the first, 0.000803 ± 0.00015 s⁻¹ for the second.

Compared with G37C G60C C68G, A15U C16U C58G C70U is higher in “self-cleavage kobs at 2500 uM GlcN6P” value: < 1e-05 s⁻¹ for the first, 7.87e-05 ± 2.1e-05 s⁻¹ for the second.

A12G C16U C67U and A14C U46G C70A are within error of each other in “self-cleavage kobs at 2500 uM GlcN6P” value: 0.000252 ± 5.2e-05 s⁻¹ for the first, 0.000308 ± 9.2e-05 s⁻¹ for the second.

Going from G35U G41A A52U C71U to C10U U47G A52U U69A, the “self-cleavage kobs at 2500 uM GlcN6P” value rises from < 1e-05 s⁻¹ to 7.36e-05 ± 3.5e-05 s⁻¹.

G7C C16A G43C U45G C71U and A48U G51A U57A cannot be ordered by “self-cleavage kobs at 2500 uM GlcN6P” value: < 1e-05 s⁻¹ for the first, < 1e-05 s⁻¹ for the second.

A12U G51A G60U and U31C G37U U65A cannot be ordered by “self-cleavage kobs at 2500 uM GlcN6P” value: < 1e-05 s⁻¹ for the first, < 1e-05 s⁻¹ for the second.

U45A U47A G59U C61A and C11U U46G A52U G66A cannot be ordered by “self-cleavage kobs at 2500 uM GlcN6P” value: < 1e-05 s⁻¹ for the first, < 1e-05 s⁻¹ for the second.

Going from A52U C68U C70U to A12U C16U C70A, the “self-cleavage kobs at 2500 uM GlcN6P” value rises from 5.68e-05 ± 1.7e-05 s⁻¹ to 0.000361 ± 0.00013 s⁻¹ (6.4-fold).

Going from G35U A42U U49A A53U to U31G U45C, the “self-cleavage kobs at 2500 uM GlcN6P” value rises from < 1e-05 s⁻¹ to 0.000406 ± 0.00014 s⁻¹.

C16G G29U C34G and G35C G41A G44A G66A cannot be ordered by “self-cleavage kobs at 2500 uM GlcN6P” value: < 1e-05 s⁻¹ for the first, < 1e-05 s⁻¹ for the second.

First: C11U G29A U49G G62A C67G
Second: G9A C50G U55A C67G
The “self-cleavage kobs at 2500 uM GlcN6P” value of the first is lower: < 1e-05 s⁻¹ for the first, 4.95e-05 ± 1.9e-05 s⁻¹ for the second.

Compared with A39U G59A A64C, A39G U47G C68G is higher in “self-cleavage kobs at 2500 uM GlcN6P” value: < 1e-05 s⁻¹ for the first, 5.94e-05 ± 2.4e-05 s⁻¹ for the second.

First: C34G C58A C71U
Second: A14U U30G G41U
The “self-cleavage kobs at 2500 uM GlcN6P” value of the first is lower: < 1e-05 s⁻¹ for the first, 0.000233 ± 7.4e-05 s⁻¹ for the second.

A15C A39U U49A C50U A52G A53C and G43U A48U G62A C67A cannot be ordered by “self-cleavage kobs at 2500 uM GlcN6P” value: < 1e-05 s⁻¹ for the first, < 1e-05 s⁻¹ for the second.

Going from C11U C19A to C10G C34G A48C, the “self-cleavage kobs at 2500 uM GlcN6P” value falls from 0.000235 ± 0.0001 s⁻¹ to < 1e-05 s⁻¹.

C10A U54C and C16A A36C U49A U65G cannot be ordered by “self-cleavage kobs at 2500 uM GlcN6P” value: < 1e-05 s⁻¹ for the first, < 1e-05 s⁻¹ for the second.

G13A U30C G59A and G13C U30C G35C G40U U47C C50A cannot be ordered by “self-cleavage kobs at 2500 uM GlcN6P” value: < 1e-05 s⁻¹ for the first, < 1e-05 s⁻¹ for the second.

Compared with A33U C34A G38A C50A C70G, G9U C10U C67U is lower in “self-cleavage kobs at 2500 uM GlcN6P” value: 0.00153 ± 0.0004 s⁻¹ for the first, < 1e-05 s⁻¹ for the second.

Compared with A14G G51C A64U C67G C71U, A12G A14U G66A is higher in “self-cleavage kobs at 2500 uM GlcN6P” value: < 1e-05 s⁻¹ for the first, 6.8e-05 ± 1.9e-05 s⁻¹ for the second.

Going from G7C U30G G37A to G41U A53U U56G, the “self-cleavage kobs at 2500 uM GlcN6P” value rises from < 1e-05 s⁻¹ to 0.00031 ± 9.3e-05 s⁻¹.

First: A6G C34G G40A C67G C70U
Second: U45G U56A C71U
The “self-cleavage kobs at 2500 uM GlcN6P” value of the first is lower: < 1e-05 s⁻¹ for the first, 0.000974 ± 0.00025 s⁻¹ for the second.

G7C C10U G13C G66U and C11G U30C G40C cannot be ordered by “self-cleavage kobs at 2500 uM GlcN6P” value: < 1e-05 s⁻¹ for the first, < 1e-05 s⁻¹ for the second.

Compared with A52G C68U C70U, G9A A14G A15U U55A is 10-fold lower in “self-cleavage kobs at 2500 uM GlcN6P” value: 0.000745 ± 0.00024 s⁻¹ for the first, 7.2e-05 ± 1.6e-05 s⁻¹ for the second.

A6G G29A G60A and C11U G29C G44U G63U U65C C67U C71U cannot be ordered by “self-cleavage kobs at 2500 uM GlcN6P” value: < 1e-05 s⁻¹ for the first, < 1e-05 s⁻¹ for the second.

Going from A39G U45A A64U to G32A G44U U49A G63A, the “self-cleavage kobs at 2500 uM GlcN6P” value falls from 0.000381 ± 0.00012 s⁻¹ to < 1e-05 s⁻¹.

G41U C50G U57C C58U C70U was tested, and the “self-cleavage kobs at 2500 uM GlcN6P” value was < 1e-05 s⁻¹.

Variants of: B1
Assay: self-cleavage kobs at 10000 uM GlcN6P; higher = faster cleavage; RNA array
Settings: with glucosamine-6-phosphate
Outline: as §1

Compared with C67A C68U C70U, C11U A14G C70G is 2.5-fold higher in “self-cleavage kobs at 10000 uM GlcN6P” value: 6.71e-05 ± 1.9e-05 s⁻¹ for the first, 0.000165 ± 3.1e-05 s⁻¹ for the second.

For A39G U45A A64U, the “self-cleavage kobs at 10000 uM GlcN6P” value was 0.000499 ± 0.00011 s⁻¹.
